Measured values reported in patent US20160331662A1, “Compositions that Inhibit and Prevent the Formation of Dental Caries and Methods of Using the Same” (priority 2014, published 2016).

Tests used:
[1] = target: salivary agglutinin (SAG) (human) (UniProt Q9UGM3); assay: SPR, analyte over SAG immobilized on CM5 chip, 1:1 Langmuir model
[2] = target: iSRCR123 (Deglycosylated) (human) (UniProt Q9UGM3); assay: SPR, analyte over ligand deglycosylated on the CM5 chip, 1:1 Langmuir model
[3] = target: iSRCR1 (Deglycosylated) (human) (UniProt Q9UGM3); assay: as above
iSRCR123 (human) = iSRCR123 (human) (UniProt Q9UGM3); assay: SPR, analyte over ligand immobilized on CM5 chip, 1:1 Langmuir model
Chain of iSRCR123 (human) (Q9UGM3 102-463 limits assumed): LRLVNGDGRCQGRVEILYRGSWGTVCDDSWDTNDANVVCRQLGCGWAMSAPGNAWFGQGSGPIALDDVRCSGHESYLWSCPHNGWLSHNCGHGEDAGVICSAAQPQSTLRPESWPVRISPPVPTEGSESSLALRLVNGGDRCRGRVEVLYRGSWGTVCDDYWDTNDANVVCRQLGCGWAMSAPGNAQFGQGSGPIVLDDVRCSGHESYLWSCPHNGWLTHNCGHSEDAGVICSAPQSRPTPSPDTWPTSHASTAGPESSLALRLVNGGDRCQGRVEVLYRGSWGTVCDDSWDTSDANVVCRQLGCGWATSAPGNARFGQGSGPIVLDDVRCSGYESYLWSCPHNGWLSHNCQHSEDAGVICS

Chain of iSRCR123 (Deglycosylated) (human) (Q9UGM3 102-463 limits assumed): as above
Chain of iSRCR1 (Deglycosylated) (human) (Q9UGM3 102-202): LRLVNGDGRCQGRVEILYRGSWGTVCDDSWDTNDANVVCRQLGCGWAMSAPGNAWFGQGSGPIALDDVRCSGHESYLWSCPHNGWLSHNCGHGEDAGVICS
Chain of salivary agglutinin (SAG) (human) (Q9UGM3 whole entry): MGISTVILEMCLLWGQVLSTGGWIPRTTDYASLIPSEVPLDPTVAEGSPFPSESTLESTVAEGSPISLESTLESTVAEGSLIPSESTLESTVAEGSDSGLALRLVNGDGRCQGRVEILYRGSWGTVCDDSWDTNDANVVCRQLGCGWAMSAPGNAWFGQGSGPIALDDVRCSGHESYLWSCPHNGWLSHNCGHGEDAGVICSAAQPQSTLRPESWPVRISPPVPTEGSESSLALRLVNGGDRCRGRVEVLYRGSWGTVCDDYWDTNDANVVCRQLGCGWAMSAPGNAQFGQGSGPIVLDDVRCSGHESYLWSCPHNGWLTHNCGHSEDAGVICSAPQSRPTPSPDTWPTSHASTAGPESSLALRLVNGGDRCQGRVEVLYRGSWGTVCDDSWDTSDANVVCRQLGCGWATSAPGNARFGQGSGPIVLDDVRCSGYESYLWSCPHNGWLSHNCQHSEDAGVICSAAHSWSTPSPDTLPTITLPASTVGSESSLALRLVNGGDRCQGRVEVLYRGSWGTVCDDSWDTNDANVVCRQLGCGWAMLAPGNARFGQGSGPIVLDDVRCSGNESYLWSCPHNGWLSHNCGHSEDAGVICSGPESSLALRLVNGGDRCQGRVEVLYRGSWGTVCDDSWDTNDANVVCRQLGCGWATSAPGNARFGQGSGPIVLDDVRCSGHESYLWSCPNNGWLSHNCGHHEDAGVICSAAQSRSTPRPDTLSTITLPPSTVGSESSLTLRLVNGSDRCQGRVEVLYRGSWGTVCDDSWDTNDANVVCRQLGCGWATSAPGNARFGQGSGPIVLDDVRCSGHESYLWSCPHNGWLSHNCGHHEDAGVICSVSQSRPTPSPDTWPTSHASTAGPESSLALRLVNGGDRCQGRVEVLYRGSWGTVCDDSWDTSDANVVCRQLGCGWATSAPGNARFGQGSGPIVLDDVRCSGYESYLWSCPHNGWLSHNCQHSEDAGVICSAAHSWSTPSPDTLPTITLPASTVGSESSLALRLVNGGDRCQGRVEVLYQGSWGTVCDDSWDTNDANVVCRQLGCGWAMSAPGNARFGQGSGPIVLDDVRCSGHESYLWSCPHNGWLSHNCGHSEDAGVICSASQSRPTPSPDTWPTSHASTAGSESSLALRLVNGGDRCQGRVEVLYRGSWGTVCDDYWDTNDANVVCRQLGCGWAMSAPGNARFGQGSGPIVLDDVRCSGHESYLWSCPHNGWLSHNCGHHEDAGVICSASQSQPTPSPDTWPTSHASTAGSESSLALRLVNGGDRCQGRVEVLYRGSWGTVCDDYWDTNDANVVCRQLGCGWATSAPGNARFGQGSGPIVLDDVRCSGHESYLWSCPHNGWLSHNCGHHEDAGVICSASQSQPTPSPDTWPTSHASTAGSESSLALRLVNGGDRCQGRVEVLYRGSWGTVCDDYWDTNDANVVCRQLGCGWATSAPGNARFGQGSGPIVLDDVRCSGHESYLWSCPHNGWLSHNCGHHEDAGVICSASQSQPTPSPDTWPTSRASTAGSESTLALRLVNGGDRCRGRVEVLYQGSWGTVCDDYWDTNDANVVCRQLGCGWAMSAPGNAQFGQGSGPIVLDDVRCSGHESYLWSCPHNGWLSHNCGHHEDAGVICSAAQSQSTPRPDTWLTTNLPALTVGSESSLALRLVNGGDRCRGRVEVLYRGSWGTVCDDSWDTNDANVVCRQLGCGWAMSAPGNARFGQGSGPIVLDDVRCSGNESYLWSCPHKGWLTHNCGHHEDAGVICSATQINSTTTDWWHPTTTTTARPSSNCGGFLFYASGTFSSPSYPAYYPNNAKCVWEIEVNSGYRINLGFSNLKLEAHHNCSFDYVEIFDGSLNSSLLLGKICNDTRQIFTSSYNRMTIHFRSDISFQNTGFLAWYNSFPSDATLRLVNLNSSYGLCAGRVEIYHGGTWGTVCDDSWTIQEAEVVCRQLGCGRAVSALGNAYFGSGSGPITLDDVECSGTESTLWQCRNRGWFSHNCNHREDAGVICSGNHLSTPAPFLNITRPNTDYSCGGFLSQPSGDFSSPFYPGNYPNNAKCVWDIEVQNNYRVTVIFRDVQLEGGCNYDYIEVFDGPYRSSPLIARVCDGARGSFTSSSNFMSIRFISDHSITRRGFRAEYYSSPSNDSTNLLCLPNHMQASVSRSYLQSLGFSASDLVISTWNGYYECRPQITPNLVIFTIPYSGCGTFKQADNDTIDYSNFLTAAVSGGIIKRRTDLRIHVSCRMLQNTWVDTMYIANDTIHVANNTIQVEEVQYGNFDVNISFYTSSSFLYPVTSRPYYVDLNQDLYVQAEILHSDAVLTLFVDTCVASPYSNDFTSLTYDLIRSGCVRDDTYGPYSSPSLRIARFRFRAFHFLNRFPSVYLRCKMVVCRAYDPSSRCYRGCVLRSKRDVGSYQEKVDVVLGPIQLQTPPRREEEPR

Substance	Ka [1] [M⁻¹]	Kd [1] [nM]	Ka [2] [M⁻¹]	Kd [2] [nM]	Kd [3] [nM]	Ka (iSRCR123 (human)) [M⁻¹]	Kd (iSRCR123 (human)) [nM]	Ka [3] [M⁻¹]
A3VP1^SspB (S. gordonii DL1 SspB, residues 386-805) (from UniProt P16952 386-805)	3.19e+07	31.4	1.38e+06	727	338	5.53e+07	18.1	
C123^SspB (S. gordonii DL1 SspB, residues 913-1406) (from UniProt P16952 913-1406)	1.07e+07	93.4		6220	1090			921000
